From the nanobody polyreactivity screen of Harvey et al. (2022)

Experiment: yeast display, Sf9 membrane polyspecificity reagent, FACS + sequencing; frameworks hold sequencing errors
Procedure, shortened: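 After 36–48 hours of galactose induction, yeast (Saccharomyces cerevisiae BJ5465) displaying a synthetic nanobody library were stained at 4 °C for 1 hour with 10% biotinylated, detergent-solubilized Sf9 membrane reagent. Streptavidin microbeads enriched the stained cells before FACS sorting into low and high (top ~1%) gates on anti-HA and streptavidin fluorescence. Each clone's polyreactivity label reflects its gate of origin.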

## QVQFVESGGGLVQAGGSLRLSCAASGSTFQGNAMGWYRQAPGKERELVAAISRSGGRTYYADSVKGRFTISRDNAKNTVYLQMNSLKPEDTAVYYCAADAYTGDIPYWWPWNNEYDYWGQGTQVTVSS
  polyreactivity (PSR sort gate): low polyreactivity

## QVQHEDSGGCLVQAAGSLSVSCAATGSTFDTYEMGRSRKATGKEMELVAAISSGGGTKYADSVKGRFKISRDNAKNTVYLQMNSLKPEDTAVYYCAADKAVGDSTRYYYWGQGTQVTVSS
  polyreactivity (PSR sort gate): low polyreactivity

## QVQHEESGGGLVQAGGSLRLICAASGRTFADNAMGWYRQAPGTERELVPSISSVTSTNYADSVKGRFTISRDNAKYTVYFQMNSLKPEDPAVYDCNAYGPIWYTAVLGFGRYYGWTDYWGQGTQVTVSS
  polyreactivity (PSR sort gate): low polyreactivity

## QVQHEESGGGLVQAGGSLRLSCAASGFTFRGYAMGWYRQAPGKERELVAAISRSGGGTYYADSVKGRFTISRDNAKNTVYLQMNSLKPEDTAVYYCAAVYRRTRSWKFDYWGQGTQVTVSS
  polyreactivity (PSR sort gate): high polyreactivity

## QVQHEESGGGLVQAGGSLRLSCAASGRIFGAYPMGWSRQATGKERELVAAITSRGGNTYYADSVKGRFTISRDNAKNTVYLQMNSLKPEDTAVYYCAARHDKRRQYYVGQSAFDYWGQGTQVTVSS
  polyreactivity (PSR sort gate): low polyreactivity

## QVQHEESGGGLVQAGGSLRLSCAASGRTFLQYAMGWYRQAPGKERELVDAITTSGGDTYYSDSVKGRFTISRDNAKNTVYLQMKSLKPEDTAVFYCNADFRVYIPHVPYLVDFYYWGQGTQVTVSS
  polyreactivity (PSR sort gate): low polyreactivity

## QVQHEESGGGLVQAGGSLRLSCAASGSIFYDNGMGWYRPAPGKERELVAAISRGGTTNYADSVKGRFTISRDKAKNTVYFQMNSLKPEDTAVYYCNADTRFTYWGSWYDYWGQGTQVTVSS
  polyreactivity (PSR sort gate): low polyreactivity

## QVQHEESGGGLVQAGGSLRLSCAASGSIIAYNAMGWYRQAPGKERELVAAITDSGGSTFDADSVKGRFTFSRDYGMITVYLQMNSLIPEDTAVYYCATSGDRLVWGQGTQVTVSS
  polyreactivity (PSR sort gate): low polyreactivity

## QVQHEESGGGLVQAGGSLRLSCASSGLIFKFSAMGWYRQAPGKERELVAAITSRGGSTYYADSVKGRFTISRDNAKNTVYFQMNSLKPEDTEVYYCAADVRTQHYNAQYDYWGQGTQVTVSA
  polyreactivity (PSR sort gate): high polyreactivity

## QVQHEETGGGLVQAGGSLRLSCAASGSTYRKNSMGWYRPAPGKERAFVAAISRSGGSTYYADSVKGRFTISRDNAKNTVYLQMNSLKPEDTAVYYCAASYYQHQYSYELGDYWGQGTQVTVSS
  polyreactivity (PSR sort gate): low polyreactivity

## QVQHEKSRGALVQAGGSLRLSCAASGSTVEKYTMGWYREAPGKVRELVAAISKSGGSTYYADSVKGRFTISRDNAMNTVYLQMNSLNPEDTAVDYCAALQYPRAGFDYWGQGTQVTVSS
  polyreactivity (PSR sort gate): high polyreactivity

## QVQHGESGGGLVQAGGSLRLTCAASGSIFKYNAMGWYRQAPGKERELDAAISLSGASRSYADSVKGRFTISRVNAKNTVYLQMNSLKPEDTAVYYCNAYYWYYSTRKYYYWGQGTQETVSS
  polyreactivity (PSR sort gate): high polyreactivity

## QVQHLESGGGLVQAGGSLRLSCAASGFTFGYYAMGWYRQAPGKEREFVATISYGTGSTYYADSVKGRFTISRDNAKNTVYLQMNSLKPEDTAVYYCNADTWPGEYNGYFSGAYDYWGQGTQVTVSS
  polyreactivity (PSR sort gate): high polyreactivity

## QVQHVESAGGLVQAGGILRLSCAASGRIFYPYAMGWYRQAPGKERELVAAISSSGGSTYYADSVKGRFTISRDNAKNTVSLQMNSLKPEDTAFYYCNKDFQYYPRIFGYWGQGTQVTVSS
  polyreactivity (PSR sort gate): high polyreactivity

## QVQHVESAGGLVQAGGILRLSCHASGFTIHAYVLGWYRQAPGKERELVAAISSGGSTYYADSVKGRFTISRDNAKNTGYLQMNSLKPEATSVYYCAAAYPYYWHLDFWGQGSQVTVSS
  polyreactivity (PSR sort gate): low polyreactivity

## QVQHVESAGGLVQAGGSLRLSCAASGITFKVYAMGWYRQAPGKERELVATISRSDAGTSYADSVKGRFTISRDNAKNTVYLQMNSLKPEDTAVYYCAATYVSKKTHTKYDYWGQGTQVTVSS
  polyreactivity (PSR sort gate): high polyreactivity

## QVQHVESAGGLVQEGGSLRLSCAASGSTSVKYPMGWYRQAPGKERELVAAIRKRGDSTYYADSVKGRFTISRDNAKNTVYLQMNSLKPEDTAVYYCAAQYLRGRGYWGQGTQVTVSS
  polyreactivity (PSR sort gate): low polyreactivity

## QVQHVESGGALVQAGGSLRLSCAASGRIFSPNAMGWYIQAPGKEWDLVAAISSGGSTYADSVKGRFTISRDNAKNTVYLQMNSLKPEDTAVYYCARTYQWTVAGRYRAYHAGYYWGQGTQVTVSS
  polyreactivity (PSR sort gate): high polyreactivity

## QVQHVESGGGIVQAGGSLRLSCAASGFTFWYYAMGWYRQAPGKERELVAVINTSGGSTYADSVKGRFTISRDNAKNTVFLQMNSLKPEDTAVYYCNKDFIYGYDAASYRPEYDYWGQGTQVTVSS
  polyreactivity (PSR sort gate): low polyreactivity

## QVQHVESGGGIVQAGGSLRLSCAASGITFYGNTMGWYRPARGKERELVARISSGGSTNYADSVKGRFTISREKAKNSGYLQMNSLKPEDTAVYYCAVKQYWYIWSGYGYDYWGQGTQVTVSS
  polyreactivity (PSR sort gate): high polyreactivity

## QVQHVESGGGIVQAGGSLRLSCAASGSTFSGYAMGWYRQAPGKERELVASISSGGRTTYADSVKGRFTISRDNAKNTVYLQMNSLKPEDTAVSYCAKRIRPGYARLYSWGQGTQVTVSS
  polyreactivity (PSR sort gate): high polyreactivity

## QVQHVESGGGLGQAGGSLRLSCAASGLTFSVYAMGWSRQAPGKERELYAAISYSGVSTYADSEKGRFTISRDNAKNTVYLQMNSLKPEDTAVYYCNARWVREGYRRWYDYWGQGTQVTVSS
  polyreactivity (PSR sort gate): low polyreactivity

## QVQHVESGGGLLQAGGSLRLSCAASGRIFWINAMGWYIQAPGKERELVATISSGSTSYADSVKGRFTITRDNAKNTVYLQMNSLKPEDTAVYYCAVSLRYTRSGAYDYWGQGTQVTVSS
  polyreactivity (PSR sort gate): low polyreactivity

## QVQHVESGGGLVHAGGSLRLSCAASGRIFGGYAMGWYRQPPGKDREFVATISRSGSSTYYADSVKGRFTISRDNAKNTVYLQMNSLKPEDTAVYYCAAVIRRPNQWYWWTNSDYWGQGTQVTVSS
  polyreactivity (PSR sort gate): high polyreactivity

## QVQHVESGGGLVHAGGSLRLSCAASGSIASYAMGWYRHATGKEKELVAGISWSGGSTYYADSVKGRFTISRDNAKNNVYLQMISLKPEDTAVYYCAARRFCPNRDSRMGYWGQGTQVTVSS
  polyreactivity (PSR sort gate): high polyreactivity

## QVQHVESGGGLVHAGGSLRLSCASSGSIFYPYAMGWYRQAQGKERELVAAIRNGGSTYYTDSVKGRFTISRDNAKNTVYLQMNSLKPEDTAVYYCAASVRRRHPFEYWGQGTQVTVSS
  polyreactivity (PSR sort gate): high polyreactivity

## QVQHVESGGGLVKAGGSLRLSCAASGFTFGVYAMGWYRLAPGKERELVAAISRRGTSTYYADSVKGRFTISRDNAKNTVYLQMNSLKPEDTAVYYCNARRYQVTVDHWGQGTQVTVSS
  polyreactivity (PSR sort gate): high polyreactivity

## QVQHVESGGGLVQAGCSLRLCCAASGSTFGGYAMGWSSQAHGNERELVAGITIAVCSTYYADSVKGRFTISRDNAKNTVYLQMNSLKPEDTAVYYCAADGLSWYNYWGPGTQVTVSS
  polyreactivity (PSR sort gate): high polyreactivity

## QVQHVESGGGLVQAGCSLRLSCAASGSIFSSYAMGWYRQAPGKERELVAAISQSGGDTYYADSVKGRFKISRDNAKNTVYLQMNSLKPEDTAVYYCAASVWFYPMDYWGQGTQVTVSS
  polyreactivity (PSR sort gate): low polyreactivity

## QVQHVESGGGLVQAGCSLRLSCAASGSIFWRYAMGWSRQAHGKEREFVAAISGSGVRTSYADSVKGRFTISRDNAKNTVYLQMNSLIPEDTAVYYCAARVSYRYTSAAYEYWGQGTQVTVSS
  polyreactivity (PSR sort gate): high polyreactivity

## QVQHVESGGGLVQAGGRLRLSCAASGSIFGSNAMGWYRQEPGKERELVAVISRRGGSTYYADSVKGRFTISRDNAKNTVYLQMNSLKPEDTAVYYCADRVWYPRYDYWGQGTQVTVSS
  polyreactivity (PSR sort gate): high polyreactivity

## QVQHVESGGGLVQAGGSHRLSCAASGSIYWWNAMGWYRQAPGKERELVAAISFSGGSTYYADSVKGRFTISRDNAKNTVYLQMNSLKPEDTAVYYCAAEAYDDYDYWGQGTQVTVSS
  polyreactivity (PSR sort gate): low polyreactivity

## QVQHVESGGGLVQAGGSLLLSCAASGSIFGGNAKGWYRQAPGKERELVAVITSRGGSTYYADSVKGRFTISRDNAKNTVSLQMNSLKPEDTAVYYCNKRYLNRREGTDDYWGQGTQVTVSS
  polyreactivity (PSR sort gate): high polyreactivity

## QVQHVESGGGLVQAGGSLPLSCAASGFIFTSNSMGWYRQAPGKESEFVAAITSGGITYYADSVKGRFTISRDNAKNTVYLQMNSLKPEDTAVYYCAAVLSYQTPKYYRWRYGYWGQGTQVTVSS
  polyreactivity (PSR sort gate): low polyreactivity

## QVQHVESGGGLVQAGGSLPLSCAASGITFSKYAMGWYRQAPGKERELVAAITRSGGSTYYADSVKGRFTISRDNAKNTVYLQMNSLKPEDTAVYYCAAKRRERYGQTYGYWGQGTQVTVSS
  polyreactivity (PSR sort gate): high polyreactivity

## QVQHVESGGGLVQAGGSLRLICAASGITFYFNAMGWYRQAPGKERELVAAISRPGGSTYYADSVKGRFTISRDNAKNTVYLQMNSLKPEDTAVYYCAAEAYFELSGGGLEYGYDYWGQGTQVTVSS
  polyreactivity (PSR sort gate): high polyreactivity

## QVQHVESGGGLVQAGGSLRLICAASGLTSYYAMGSYRQAPGKEREIVAAIDGSDGNTYYADSVKGRYTISRDNAKNTVYLQMNSLKPEYTAVYYCNAETVLYWWSWENDYWGQGTQVTVSL
  polyreactivity (PSR sort gate): high polyreactivity

## QVQHVESGGGLVQAGGSLRLICAASGSTFGDNAKGRYREAPGKERELVAVITSDTSTYYADSVKGRFTISRDNAKNTVYLQMNSLKPEDTAVYYCAADWGGLWFWYEYWGQGTQVTVSS
  polyreactivity (PSR sort gate): low polyreactivity

## QVQHVESGGGLVQAGGSLRLRCAASGTTFSSNAMGWSRHAPGKERELVASITRGGSTSADSVKGRFTISRDNAKNTVYLQMNSLKPEDTAVYYCAKSVTGWRGLWYTPRNYYWGQGTQVTVSS
  polyreactivity (PSR sort gate): high polyreactivity

## QVQHVESGGGLVQAGGSLRLSCAASESILNRYVMGWYRQATGKERELVCTYYADSVKVRFTISRDNAKNTVYLQMNSLKPEDTAVYYCAADVYLYYAGSRYYYWGQGTQVTVSS
  polyreactivity (PSR sort gate): low polyreactivity

## QVQHVESGGGLVQAGGSLRLSCAASGFIFARNAMGWYRQARGKERELVAVISTRGRTYYADSVKGRFTFSRDNAKNTVYLQMNSLKPEDTAVYYCNADKVIGYDYWGQGTQVTVSS
  polyreactivity (PSR sort gate): high polyreactivity

## QVQHVESGGGLVQAGGSLRLSCAASGFIFPVYAMGWYRQAPGKDRELVAAISSGGITNYADSVKVRFTISRDNAKNTVYLQMNSLKPEDTAVYYCAARDYVRFGLYDYDYWGQGTQVTVSS
  polyreactivity (PSR sort gate): low polyreactivity

## QVQHVESGGGLVQAGGSLRLSCAASGFIFRWYAMGWYRQAPGKERELVAAITTSGGITYYADSVKGRFTISRDNAKNTVYLQMNSLKPEDTAVYYCNRSPWYGPWHPNSFGSGDYWGQGTQVTVSS
  polyreactivity (PSR sort gate): low polyreactivity
